{"source": "patent US20180312557A1", "about": "“Leg1 Protein, Leg1 Gene, and Uses and Drugs thereof” (ZHEJIANG UNIVERSITY, priority 2016, published 2018)", "key": {"EGFR [1]": {"biological_target": "T1, EGFR (Mus musculus, UniProt Q01279)", "T1 construct": "from tissue; host or cells: liver of mLeg1^Δ/Δ mice", "experiment": "EGFR interacting with mLeg1 in liver after intragastric administration (co-immunoprecipitation)", "assay_type": "in vivo", "procedure": "(§1) 22.1 The column chromatography partially purified mLeg1 protein was intragastrically administered to the mLeg1^Δ/Δ mice at 50 ng of mLeg1 per gram of body weight of the mice.\n(§2) 22.2 The mice were sacrificed at different time points (0, 10, 20, 40, 60 min) after intragastric administration and liver samples were collected, an immunoprecipitation experiment was conducted to pull down mLeg1 protein (if there is any) and its interacting protein in the liver by using mLeg1 antibodies Reference may be made to steps 21.2-21.5."}, "RTKs": {"test_system": "RTKs", "experiment": "Phospho-RTK array, HepG2 cells: other RTKs", "assay_type": "cell-based, human", "details": "HepG2, Phospho-RTK array (49 RTKs)", "procedure": "(§3) 19.1 The screening of receptor tyrosine kinase was performed by a RTK assay kit (Proteome Profiler Human Phospho-RTK Array Kit, R&D Cat. no. ARY001B) according to the manufacturer's instruction. The kit can detect 49 of 58 RTKs in total. The operation steps are summarized as follows: mLeg1 and a control were used to treat the cells (cells were grown in a 10 cm petri dish) separately, and then 500 μl of lysis buffer17 was used to lyse the cells; the RTK screening membrane was blocked for 1 hour using Assay buffer1 and then coated with a cell lysate for binding overnight, the resultant product was washed three times with 1× Wash Buffer, 10 minutes each time, then added with Anti-Phospho-Tyrosine-HRP Detection Antibody diluted with 1× Array Buffer2 at the ratio of 1:5000 for incubation at room temperature for 2 hours; followed by washing 3 times with 1× Wash Buffer, 10 minutes each time, then applied with Chemi Reagent Mix and developed, and finally imaged in a fluorescent chemiluminescent imager (Clinx Science Instruments Cat. No. 3400) with the signals recorded."}, "[2]": {"test_system": "Akt phosphorylation in the liver", "experiment": "Liver Akt phosphorylation after intragastric administration of mLeg1", "assay_type": "in vivo, mouse", "procedure": "as §1, §2\nThis may result from the fact that mLeg1 binds with EGFR rapidly, and transmitted downstream signals rapidly, as in in vitro experiments, mLeg1 can activate EGFR within 1 minute and the phosphorylation level of EGFR began to decrease within 3 minutes. Further, the inventors of the present disclosure also detected the activation of such intragastrically administered mLeg1 protein on downstream Akt. […] According to the above results, mLeg1 secreted from the salivary glands can be transferred into the liver and activates EGFR in the liver, thereby activating Akt to finally regulate the physiological functions of the liver cells."}, "EGFR [3]": {"biological_target": "T2, EGFR (Homo sapiens, UniProt P00533)", "T2 construct": "endogenous in cells; host or cells: HepG2", "experiment": "Effect of EGFR inhibitor on mLeg1-induced Akt and EGFR phosphorylation in HepG2 cells", "assay_type": "cell-based", "details": "HepG2, 15 minutes", "excerpt": "20.1 Culture of the HepG2 cell: reference may be made to step 18.1 for details."}, "[4]": {"experiment": "mLeg1 protein in liver of mLeg1Δ/Δ mice after intragastric administration (immunoprecipitation)", "assay_type": "in vivo, mouse", "procedure": "as §1, §2"}, "EGFR [5]": {"biological_target": "T2, EGFR", "experiment": "Phospho-RTK array and EGFR phosphorylation specific antibody, HepG2 cells: EGFR", "assay_type": "cell-based", "procedure": "as §3\nFurther, the inventors of the present disclosure detected the impact of mLeg1 on intracellular EGFR activation level by an EGFR phosphorylation specific antibody."}, "EGFR [6]": {"biological_target": "T1, EGFR", "experiment": "Co-immunoprecipitation of mLeg1 and EGFR in cells isolated from liver homogenate", "assay_type": "binding", "details": "liver cells incubated at 4° C. with crosslinking agent DSP", "procedure": "Since the reaction of mLeg1 activating EGFR is very short and the EGFR will be degraded soon after being activated, the inventors of the present disclosure used mLeg1 to incubate the liver cells at 4° C., and simultaneously added a crosslinking agent DSP thereto to stabilize the interaction between mLeg1 and its potential interacting protein, and then washed mLeg1 and lysed the liver cells using NP40 lysate for co-immunoprecipitation. The experimental method was as follows.\n21.1 Antibody crosslinking: 30 μl of proteinA/G (beyotime Cat. No. P2012) was centrifuged at a low speed (500-1000 g) to remove the supernatant, and then washed twice using 4° C. pre-chilled PBS, then added with mLeg1 antibody (20 μg of antibody were dissolved in 1×100 μl PBS) for incubation at room temperature for 30 minutes, and then centrifuged to remove the supernatant. The beads were washed three times with 300 μl of PBS, then incubated with 50 μl of DSS solution (5 μl 10×PBS, 36 μl H2O, 9 μl 2.5 mM DSS (Thermo, Cat. NO. 21655)) for 50 minutes at room temperature. After centrifugation to remove supernatant, the beads were washed three times with 50 μl of 100 mM pH 2.2 glycine, washed twice with 300 μl of PBS containing 1% NP40, and finally washed once with 300 μl of PBS. […]\n21.5 The protein pulled down by the mLeg1 antibody was detected by Western blot."}, "[7]": {"test_system": "intracellular tyrosine phosphorylation in HepG2 cells", "experiment": "Total intracellular tyrosine phosphorylation in HepG2 cells (antibody 4G10)", "assay_type": "cell-based, human", "details": "HepG2, partially purified mLeg1 vs no addition", "procedure": "18.1 Partially purified mLeg1 was added to the HepG2 cell medium to culture the HepG2 cells, and then total protein was extracted.\n18.2 The phosphorylation level of the total intracellular tyrosine was detected through the tyrosine phosphorylation antibody 4G10 (Millipore, 05-321)."}}}
{"molecule": "mLeg1 protein: mouse secretory protein (SEQ ID NO: 2) encoded by mLeg1 gene, partially purified from salivary glands by column chromatography (protein, listed as Mus musculus, partially purified) MAVLASWVWVLAGCFCAAVAEVSDSSDPYPPLWEDSPEQLSDYMMEDGNYIINPWVYTDRMGMYRILLEETAMYFAKYGPENEQNLLWGLPLQFGWQYQSGRLADPTGMTDCGNELNESLCVSVDSWWADINYYLSVIPFLAAVDSGITGISPNQITILPPPKDQMRFCYNVSDCQSAVPGTMNRWRDFFQYMQLNSSDFDGLLNYLWEAHASSLDYPTSAFGDRYNFYSEKEANFEENWAIAVNYLAAARLPTTQNRTYSFQRGLPPRVLVDTDIAPFIPDFTPLQNEVLVSLKLLGDTDRNSGSLSLTLWENLMSTKLARTLFLKAFEEFLATSS", "values": [{"measurement": "time at which the amount of EGFR that interacts with mLeg1 reached the maximum", "setting": "EGFR [1]", "value": 10, "unit": "min"}, {"measurement": "activity of most of the RTKs", "setting": "RTKs", "value": "not influenced"}, {"measurement": "Akt phosphorylation in the liver", "setting": "[2]; 10 minutes after intragastric administration", "value": "increased"}, {"measurement": "Akt phosphorylation in the liver", "setting": "[2]; 40 minutes to 60 minutes after intragastric administration", "value": "more significant"}, {"measurement": "EGFR phosphorylation", "setting": "EGFR [3]; mLeg1 treatment", "value": "induced EGFR phosphorylation"}, {"measurement": "Akt phosphorylation", "setting": "EGFR [3]; partially purified mLeg1 vs BSA control", "value": "could be induced"}, {"measurement": "mLeg1 in the liver", "setting": "[4]; 40 minutes and 60 minutes after intragastric administration", "value": "decreased"}, {"measurement": "time at which the amount of mLeg1 protein in the liver reached the maximum value", "setting": "[4]; mLeg1Δ/Δ mice, 50 ng per gram of body weight, intragastric", "value": 20, "unit": "min"}, {"measurement": "intracellular EGFR activation level", "setting": "EGFR [5]; EGFR phosphorylation specific antibody", "value": "could activate the EGFR very rapidly"}, {"measurement": "tyrosine phosphorylation in EGFR", "setting": "EGFR [5]; HepG2, Phospho-RTK array", "value": "increases significantly"}, {"measurement": "time within which EGFR is activated", "setting": "EGFR [5]; in vitro experiments", "value": "≤ 1", "unit": "min"}, {"measurement": "time within which the phosphorylation level of EGFR began to decrease", "setting": "EGFR [5]; in vitro experiments", "value": "≤ 3", "unit": "min"}, {"measurement": "interaction with EGFR (pull-down by mLeg1 antibody)", "setting": "EGFR [6]", "value": "EGFR could be co-precipitated"}, {"measurement": "phosphorylation level of the intracellular tyrosine", "setting": "[7]", "value": "far higher than that of the control group"}]}
